The source of these data is publication PMC11526878.

This assay addresses ryanodine receptor 1 (RyR1) purified from rabbit skeletal muscle (rabbit) (UniProt P11716). Put plainly: cryo-EM structure.

ryanodine receptor 1 (RyR1) purified from rabbit skeletal muscle, P11716 1-5037, sequence (P11716 whole entry): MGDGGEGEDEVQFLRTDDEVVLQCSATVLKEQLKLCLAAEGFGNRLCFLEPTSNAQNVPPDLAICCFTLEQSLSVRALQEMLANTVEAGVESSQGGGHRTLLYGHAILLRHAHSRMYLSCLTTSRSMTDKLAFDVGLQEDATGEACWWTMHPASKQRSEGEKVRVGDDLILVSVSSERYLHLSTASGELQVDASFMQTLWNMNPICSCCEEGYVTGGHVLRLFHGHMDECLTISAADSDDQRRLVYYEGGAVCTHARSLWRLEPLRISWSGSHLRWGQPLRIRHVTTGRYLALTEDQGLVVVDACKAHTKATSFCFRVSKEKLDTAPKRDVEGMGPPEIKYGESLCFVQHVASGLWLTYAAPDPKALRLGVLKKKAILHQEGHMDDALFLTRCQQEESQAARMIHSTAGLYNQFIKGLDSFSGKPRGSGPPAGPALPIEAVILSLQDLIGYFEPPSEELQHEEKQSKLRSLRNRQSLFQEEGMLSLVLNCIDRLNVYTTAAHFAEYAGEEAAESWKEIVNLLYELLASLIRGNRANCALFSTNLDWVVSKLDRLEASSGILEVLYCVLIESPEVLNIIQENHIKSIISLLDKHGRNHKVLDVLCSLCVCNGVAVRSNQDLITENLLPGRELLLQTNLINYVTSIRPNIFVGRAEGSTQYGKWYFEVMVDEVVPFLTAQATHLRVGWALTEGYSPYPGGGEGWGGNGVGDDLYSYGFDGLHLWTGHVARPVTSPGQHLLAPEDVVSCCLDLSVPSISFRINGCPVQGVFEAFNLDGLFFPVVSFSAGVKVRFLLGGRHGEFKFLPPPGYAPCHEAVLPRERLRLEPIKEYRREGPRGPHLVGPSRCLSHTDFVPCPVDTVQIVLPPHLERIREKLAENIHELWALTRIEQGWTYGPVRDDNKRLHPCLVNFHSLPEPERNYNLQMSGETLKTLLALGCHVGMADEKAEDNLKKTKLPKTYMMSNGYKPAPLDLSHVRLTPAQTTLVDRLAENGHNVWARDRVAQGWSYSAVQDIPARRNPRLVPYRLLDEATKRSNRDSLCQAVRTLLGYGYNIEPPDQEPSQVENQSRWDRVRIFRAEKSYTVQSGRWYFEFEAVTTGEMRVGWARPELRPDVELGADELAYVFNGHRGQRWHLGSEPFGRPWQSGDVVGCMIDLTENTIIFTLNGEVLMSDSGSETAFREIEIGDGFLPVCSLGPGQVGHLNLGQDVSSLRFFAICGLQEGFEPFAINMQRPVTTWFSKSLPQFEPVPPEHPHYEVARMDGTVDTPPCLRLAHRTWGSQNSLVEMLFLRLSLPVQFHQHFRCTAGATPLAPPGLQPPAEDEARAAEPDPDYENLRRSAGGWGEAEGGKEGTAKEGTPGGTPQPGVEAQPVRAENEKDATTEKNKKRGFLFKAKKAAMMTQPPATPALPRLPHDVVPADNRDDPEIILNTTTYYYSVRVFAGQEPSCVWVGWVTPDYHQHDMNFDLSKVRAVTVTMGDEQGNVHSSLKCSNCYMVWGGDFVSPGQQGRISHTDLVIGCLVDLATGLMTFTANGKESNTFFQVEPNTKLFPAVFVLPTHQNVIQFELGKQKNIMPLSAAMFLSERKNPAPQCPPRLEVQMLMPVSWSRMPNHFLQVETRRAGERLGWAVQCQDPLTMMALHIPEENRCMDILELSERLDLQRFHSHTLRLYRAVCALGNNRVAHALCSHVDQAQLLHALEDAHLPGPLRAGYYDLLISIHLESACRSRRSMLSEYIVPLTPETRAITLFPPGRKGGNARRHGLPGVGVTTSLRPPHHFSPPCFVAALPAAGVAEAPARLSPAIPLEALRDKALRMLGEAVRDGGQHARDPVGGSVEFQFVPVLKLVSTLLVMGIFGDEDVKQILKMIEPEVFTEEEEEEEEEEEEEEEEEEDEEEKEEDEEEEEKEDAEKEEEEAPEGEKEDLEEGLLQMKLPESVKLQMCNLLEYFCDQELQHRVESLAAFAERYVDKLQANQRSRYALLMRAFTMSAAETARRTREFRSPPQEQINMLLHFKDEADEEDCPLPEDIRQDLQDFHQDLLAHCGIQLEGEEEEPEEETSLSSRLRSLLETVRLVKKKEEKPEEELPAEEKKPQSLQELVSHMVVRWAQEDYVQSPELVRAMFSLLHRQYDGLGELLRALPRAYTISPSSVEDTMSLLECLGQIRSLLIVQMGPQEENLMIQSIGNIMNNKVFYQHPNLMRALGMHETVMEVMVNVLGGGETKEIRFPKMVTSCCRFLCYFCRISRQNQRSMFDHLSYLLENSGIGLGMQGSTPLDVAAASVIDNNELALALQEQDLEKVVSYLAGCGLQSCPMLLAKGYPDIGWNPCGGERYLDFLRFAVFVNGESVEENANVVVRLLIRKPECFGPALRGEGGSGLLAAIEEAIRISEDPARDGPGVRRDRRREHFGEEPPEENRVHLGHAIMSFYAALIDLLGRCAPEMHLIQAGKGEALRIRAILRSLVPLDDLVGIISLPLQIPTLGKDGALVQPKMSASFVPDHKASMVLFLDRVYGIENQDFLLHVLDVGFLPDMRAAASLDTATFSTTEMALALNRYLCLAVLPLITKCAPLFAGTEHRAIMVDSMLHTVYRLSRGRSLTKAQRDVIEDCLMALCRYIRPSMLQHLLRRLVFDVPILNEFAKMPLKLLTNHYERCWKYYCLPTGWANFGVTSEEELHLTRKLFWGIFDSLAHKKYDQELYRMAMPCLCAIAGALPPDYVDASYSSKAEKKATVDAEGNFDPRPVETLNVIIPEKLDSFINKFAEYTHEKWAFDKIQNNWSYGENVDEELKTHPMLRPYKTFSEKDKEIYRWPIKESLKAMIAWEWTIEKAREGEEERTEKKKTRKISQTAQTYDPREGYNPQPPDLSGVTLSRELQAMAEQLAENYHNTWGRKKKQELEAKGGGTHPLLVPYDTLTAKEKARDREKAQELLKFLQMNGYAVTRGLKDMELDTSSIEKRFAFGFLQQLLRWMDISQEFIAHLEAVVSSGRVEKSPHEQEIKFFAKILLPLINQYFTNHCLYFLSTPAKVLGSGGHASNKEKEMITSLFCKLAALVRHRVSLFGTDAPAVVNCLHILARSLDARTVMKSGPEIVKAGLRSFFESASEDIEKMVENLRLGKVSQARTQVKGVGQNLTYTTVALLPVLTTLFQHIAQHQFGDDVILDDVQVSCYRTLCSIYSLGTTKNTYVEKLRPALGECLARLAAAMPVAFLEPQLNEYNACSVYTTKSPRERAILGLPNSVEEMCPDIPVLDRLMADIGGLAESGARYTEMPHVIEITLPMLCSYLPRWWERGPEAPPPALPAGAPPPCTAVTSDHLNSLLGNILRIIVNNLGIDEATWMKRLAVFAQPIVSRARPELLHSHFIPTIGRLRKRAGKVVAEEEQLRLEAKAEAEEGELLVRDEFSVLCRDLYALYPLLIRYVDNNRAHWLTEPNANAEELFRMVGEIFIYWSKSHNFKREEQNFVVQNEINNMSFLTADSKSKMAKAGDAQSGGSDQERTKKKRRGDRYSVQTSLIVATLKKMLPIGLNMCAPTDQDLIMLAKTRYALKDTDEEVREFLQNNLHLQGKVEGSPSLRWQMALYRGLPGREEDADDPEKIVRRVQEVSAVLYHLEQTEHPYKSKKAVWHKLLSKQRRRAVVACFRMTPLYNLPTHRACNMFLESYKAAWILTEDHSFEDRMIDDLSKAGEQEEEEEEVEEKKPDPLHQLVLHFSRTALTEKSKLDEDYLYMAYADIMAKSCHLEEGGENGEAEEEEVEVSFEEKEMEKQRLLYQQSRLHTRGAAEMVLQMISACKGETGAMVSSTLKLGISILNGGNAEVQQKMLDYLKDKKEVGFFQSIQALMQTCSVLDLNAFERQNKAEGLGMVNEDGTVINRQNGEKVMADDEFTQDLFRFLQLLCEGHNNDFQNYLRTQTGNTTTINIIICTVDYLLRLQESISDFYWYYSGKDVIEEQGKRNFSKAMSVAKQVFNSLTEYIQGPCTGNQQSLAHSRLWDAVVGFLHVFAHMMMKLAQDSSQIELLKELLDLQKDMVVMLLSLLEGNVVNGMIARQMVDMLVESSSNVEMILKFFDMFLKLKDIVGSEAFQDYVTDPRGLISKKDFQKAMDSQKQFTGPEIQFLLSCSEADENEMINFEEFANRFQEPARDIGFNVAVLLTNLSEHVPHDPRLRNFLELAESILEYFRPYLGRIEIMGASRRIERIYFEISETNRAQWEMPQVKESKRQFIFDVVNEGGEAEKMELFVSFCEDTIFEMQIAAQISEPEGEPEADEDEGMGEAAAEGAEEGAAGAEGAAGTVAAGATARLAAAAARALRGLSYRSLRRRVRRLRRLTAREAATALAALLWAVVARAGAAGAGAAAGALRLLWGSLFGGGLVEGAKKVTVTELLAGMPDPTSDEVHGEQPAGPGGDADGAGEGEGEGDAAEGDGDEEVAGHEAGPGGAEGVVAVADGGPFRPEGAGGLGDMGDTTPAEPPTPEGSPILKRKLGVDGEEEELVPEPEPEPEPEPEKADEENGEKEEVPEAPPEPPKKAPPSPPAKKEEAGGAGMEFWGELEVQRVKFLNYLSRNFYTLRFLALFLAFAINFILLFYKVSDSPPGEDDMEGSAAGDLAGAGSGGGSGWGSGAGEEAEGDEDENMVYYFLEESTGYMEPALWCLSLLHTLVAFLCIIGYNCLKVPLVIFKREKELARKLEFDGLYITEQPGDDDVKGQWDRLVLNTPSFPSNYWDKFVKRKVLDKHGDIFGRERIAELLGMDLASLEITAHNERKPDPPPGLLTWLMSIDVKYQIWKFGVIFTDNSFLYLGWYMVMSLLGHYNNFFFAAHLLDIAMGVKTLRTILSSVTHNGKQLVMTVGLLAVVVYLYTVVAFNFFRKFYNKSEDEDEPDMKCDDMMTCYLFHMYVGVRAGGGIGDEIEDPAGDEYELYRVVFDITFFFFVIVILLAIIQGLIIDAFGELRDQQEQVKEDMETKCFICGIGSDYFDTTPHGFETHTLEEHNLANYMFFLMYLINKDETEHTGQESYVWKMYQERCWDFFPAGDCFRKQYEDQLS

By stoichiometry N is commonly meant the number of molecules, sites or subunits per partner or assembly. In turn, “ryanodine receptor 1 (RyR1) purified from rabbit skeletal muscle, P11716 1-5037” had a stoichiometry N of 4.
